Experiments:
[1] = biological target: mouse CARMIL2 Q538E (untagged, CARMIL2^QE) (mouse); assay: co-IP; Immunoprecipitation with anti-CARMIL2 (EM-53) from lysates of short-term expanded mouse CD8+ (OT-I) and CD4+ T cells (Carmil2^QE, Carmil2^QE Cd28-/-), immunoblot with anti-CARMIL2 and anti-CARD11; cells untreated or treated with pervanadate for 2 and 5 min at 37°C
[2] = biological target: mouse CARMIL2 Q538E tagged with a Twin-Strep-tag at the N terminus (CARMIL2^QE-OST) (mouse); assay: affinity purification with mass spectrometry; OST-tagged CARMIL2 purified on Strep-Tactin Sepharose beads from lysates of short-term expanded mouse CD4+ T cells, untreated or treated with pervanadate for 2, 5 and 10 min; label-free quantitative MS, interaction stoichiometries

B1: mouse CARD11 (natural protein)
chain: MPGGGPAMDDYMETLKDEEEALWDNVECNRHMLSRYINPAKLTPYLRQCKVIDEQDEDEVLNAPMLPSKINRAGRLLDILHTKGQRGYVVFLESLEFYYPELYKLVTGKEPTRRFSTIVVEEGHEGLTHFLMNEVIKLQQQVKAKDLQRCELLAKSRQLEDEKKQLSLIRVELLTFQERYYKMKEERDSYNDELVKVKDDNYNLAMRYAQLSEEKNMAVMRSRDLQLEIDQLKHRLNKMEEECKLERNQSLKLKNDIENRPRKEQVLELERENEMLKTKIQELQSIIQAGKRSLPDSDKAILDILEHDRKEALEDRQELVNKIYNLQEEVRQAEELRDKYLEEKEDLELKCSTLGKDCEMYKHRMNTVMLQLEEVERERDQAFHSRDEAQTQYSQCLIEKDKYRKQIRELEEKNDEMRIEMVRREACIVNLESKLRRLSKDNGSLDQSLPRHLPATIISQNLGDTSPRTNGQEADDSSTSEESPEDSKYFLPYHPPRRRMNLKGIQLQRAKSPISMKQASEFQALMRTVKGHEEDFTDGSPSSSRSLPVTSSFSKMQPHRSRSSIMSITAEPPGNDSIVRRCKEDAPHRSTVEEDNDSCGFDALDLDDENHERYSFGPPSIHSSSSSHQSEGLDAYDLEQVNLMLRKFSLERPFRPSVTSGGHVRGTGPLVQHTTLNGDGLITQLTLLGGNARGSFIHSVKPGSLAERAGLREGHQLLLLEGCIRGERQSVPLDACTKEEARWTIQRCSGLITLHYKVNHEGYRKLLKEMEDGLITSGDSFYIRLNLNISSQLDACSMSLKCDDVVHVLDTMYQDRHEWLCARVDPFTDQDLDTGTIPSYSRAQQLLLVKLQRLVHRGNREEADSAHHTLRSLRNTLQPEEMLSTSDPRVSPRLSRASFFFGQLLQFVSRSENKYKRMNSNERVRIISGSPLGSLSRSSLDATKLLTEKHEELDPENELSRNLTLIPYSLVRAFHCERRRPVLFTPTMLAKTLVQKLLNSGGAMEFTICKSDIVTRDEFLRKQKTETIIYSREKNPNTFECIVPANIEAVAAKNKHCLLEAGIGCVRDLIKCKVYPIVLLIRVSEKNIKRFRKLLPRPETEEEFLRVCRLKEKELEALPCLYATVEAEMWSSVEELLRVLKDKIVEEQRKTIWVDEDQL
Q: What does the source list for B1?
A: fold lower level of complexes in unstimulated Carmil2^QE Cd28-/- CD4+ T cells than in unstimulated Carmil2^QE CD4+ T cells [1]: 2 fold; fold increase of the interaction stoichiometry after T cell activation over that in resting cells [2]: 7 fold; percent of the available CARMIL2^QE-OST molecules complexed to CARD11 after 2 min of activation [2]: 12%

— PMC12097149
